Laboratory results taken from patent US20210330736A1 (UNIVERSITEIT VAN AMSTERDAM, priority 2018, published 2021).

Biological target: GUCY2C (Homo sapiens, UniProt P25092)
Assay: Th Ser40 phosphorylation in HEK cells co-transfected with Th and GUCY2C (western blot)
Format: cell-based
Design: expressed in transfected cells; host or cells: HEK cells (ATCC), calcium-phosphate transfection, co-transfected with mouse Th
Conditions: guanylin 10 μM, uroguanylin 1 μM, IBMX 100 μM, 1 hour
Protocol: FIG. 4. GUCY2C activation increases Ser40 phosphorylation. Immunocytochemistry images (A) and western blotting analysis (B) of HEK cultures transfected with Th or Th+GUCY2C. (C) Co-transfected HEK cells were treated with guanylin (G) or uroguanylin (UroG) and changes in Ser40 phosphorylation were studied. The graph represents the statistical analysis (n=3 for Control, n=6 for Guanylin, n=9 for Uroguanylin; Mean±SEM). Unpaired Student's t-test (p-value: **<0.01).
FIG. 5. […] (A) HEK cultures were treated with guanylin, in the presence or absence of IBMX. […] Unpaired Student's t-test (p-values: ****<0.0001, **<0.01, *<0.05). (B) HEK cells were co-transfected with Th and either the wt GUCY2C or a gain-of-function mutant (R792S). Ser40 phosphorylation was studied following guanylin treatment (G). […] Unpaired Student's t-test (p-values: ***<0.001, **<0.01).
HEK cells were maintained in 100-mm Petri dishes and grown in DMEM medium supplemented with L-glutamine, penicillin-streptomycin (Pen&Strep) and 10% heat-inactivated fetal bovine serum (HIFBS). Growing conditions were 37° C. and 5% CO2. For every-other-day passages, HEK cultures were split at a 1:3 dilution. From Friday to Monday, the split proportion was doubled for all cell lines. For passaging, cultures were rinsed with PBS and incubated with 1 mL of trypsin during 5 minutes. Cells were resuspended in growth medium and finally split to the proper dilution. The experiments were performed in 12-well plates. For immunocytochemistry analysis, sterile 18-mm coverslips were added prior to the plating. 500 !μL of cell resuspension was seeded in each well. If experiments were to be performed 48 hours after the plate preparation, 1:5 was the seeding ratio for HEK cells. When the experiments took place 96 hours post-plating, 1:7 was the working dilution for HEK cells. Unless otherwise stated, HEK cultures were processed 96 hours post-plating.
HEK cells were transfected using the calcium-phosphate method. 12-well plates were refreshed with 500 μL of growth medium before transfection. […]

GUCY2C, sequence (P25092 24-1073): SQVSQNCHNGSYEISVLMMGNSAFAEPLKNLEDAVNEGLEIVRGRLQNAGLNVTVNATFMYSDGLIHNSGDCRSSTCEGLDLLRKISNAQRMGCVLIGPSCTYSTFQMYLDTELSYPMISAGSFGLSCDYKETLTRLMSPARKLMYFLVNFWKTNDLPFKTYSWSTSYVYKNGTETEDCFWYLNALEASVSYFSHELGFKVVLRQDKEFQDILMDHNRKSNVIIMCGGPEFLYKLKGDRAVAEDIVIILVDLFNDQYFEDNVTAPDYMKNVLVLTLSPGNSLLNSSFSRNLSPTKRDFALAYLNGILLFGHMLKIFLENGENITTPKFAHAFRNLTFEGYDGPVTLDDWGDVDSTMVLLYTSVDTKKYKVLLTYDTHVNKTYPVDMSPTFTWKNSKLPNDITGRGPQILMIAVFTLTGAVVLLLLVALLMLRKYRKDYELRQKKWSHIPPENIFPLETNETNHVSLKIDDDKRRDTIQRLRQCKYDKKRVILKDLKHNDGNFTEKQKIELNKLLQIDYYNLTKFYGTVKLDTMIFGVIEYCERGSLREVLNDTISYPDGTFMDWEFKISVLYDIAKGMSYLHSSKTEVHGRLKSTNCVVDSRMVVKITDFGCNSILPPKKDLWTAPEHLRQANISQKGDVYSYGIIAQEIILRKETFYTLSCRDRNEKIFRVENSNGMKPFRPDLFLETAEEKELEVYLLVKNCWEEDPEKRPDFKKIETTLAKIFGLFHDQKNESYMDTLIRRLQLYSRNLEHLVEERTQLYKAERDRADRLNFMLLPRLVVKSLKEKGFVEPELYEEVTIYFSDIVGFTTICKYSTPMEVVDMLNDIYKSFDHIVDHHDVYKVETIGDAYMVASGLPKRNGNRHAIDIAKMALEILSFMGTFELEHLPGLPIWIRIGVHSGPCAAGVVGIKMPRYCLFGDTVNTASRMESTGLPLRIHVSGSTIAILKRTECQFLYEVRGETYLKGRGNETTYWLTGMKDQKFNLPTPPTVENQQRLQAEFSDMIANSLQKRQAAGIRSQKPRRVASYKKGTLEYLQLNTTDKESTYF

In the case of “guanylin: natural agonistic ligand of GUCY2C, 15 amino acid polypeptide; commercially available rat/mouse guanylin (Chemcruz) (PNTCEICAYAACTGC) [reference compound]”, the “P-Ser40 levels / Ser40 phosphorylation (in words)” value is reported as “increase P-Ser40 levels”.
